Test results published in EP1992633A1 (HUMAN GENOME SCIENCES, INC., dated 2008).

Legend:
Assay in all cases: method not described (cites Mazzei et al. 1995)
DR3 = molecular target: T1, DR3 (UniProt Q93038 25-199, limits assumed)
T1 sequence (looked up): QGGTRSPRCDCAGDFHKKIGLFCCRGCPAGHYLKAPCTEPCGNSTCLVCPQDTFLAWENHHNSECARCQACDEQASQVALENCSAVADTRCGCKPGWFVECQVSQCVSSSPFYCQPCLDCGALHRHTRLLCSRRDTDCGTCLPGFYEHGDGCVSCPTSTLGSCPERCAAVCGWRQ

TNFR1 = molecular target: T2, TNFR1 (UniProt P19438 30-211, limits assumed)
T2 sequence (looked up): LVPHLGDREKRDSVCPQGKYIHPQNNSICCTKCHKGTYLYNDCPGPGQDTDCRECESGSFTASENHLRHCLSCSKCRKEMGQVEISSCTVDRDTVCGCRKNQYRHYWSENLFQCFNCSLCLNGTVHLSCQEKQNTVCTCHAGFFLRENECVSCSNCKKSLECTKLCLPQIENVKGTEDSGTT

TNFR2 = molecular target: T3, TNFR2 (UniProt P20333 23-257, limits assumed)
T3 sequence (looked up): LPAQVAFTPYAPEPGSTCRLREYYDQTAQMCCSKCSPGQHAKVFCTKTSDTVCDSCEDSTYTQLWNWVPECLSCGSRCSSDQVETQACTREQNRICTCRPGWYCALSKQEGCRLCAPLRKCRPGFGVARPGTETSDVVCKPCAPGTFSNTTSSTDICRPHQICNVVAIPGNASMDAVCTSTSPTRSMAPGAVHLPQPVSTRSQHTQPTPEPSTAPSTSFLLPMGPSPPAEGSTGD

Fas = molecular target: T4, Fas (UniProt P25445 26-173, limits assumed)
T4 sequence (looked up): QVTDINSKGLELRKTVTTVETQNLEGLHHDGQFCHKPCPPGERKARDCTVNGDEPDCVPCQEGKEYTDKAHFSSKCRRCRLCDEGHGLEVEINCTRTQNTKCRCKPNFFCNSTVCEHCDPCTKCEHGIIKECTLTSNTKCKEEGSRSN

DR4 = molecular target: T5, DR4 (UniProt O00220 24-239, limits assumed)
T5 sequence (looked up): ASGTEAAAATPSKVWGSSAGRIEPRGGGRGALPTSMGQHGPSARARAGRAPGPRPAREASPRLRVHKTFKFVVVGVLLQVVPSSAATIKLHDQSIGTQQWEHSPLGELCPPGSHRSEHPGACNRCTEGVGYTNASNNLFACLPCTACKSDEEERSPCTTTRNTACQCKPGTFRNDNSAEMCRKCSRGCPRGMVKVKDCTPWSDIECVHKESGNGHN

binding result (DR3): no binding
binding result (TNFR1): no binding
binding result (TNFR2): no binding
binding result (Fas): no binding
binding result (DR4): no binding
B1: truncated version of VEGI-alpha corresponding to the putative extracellular domain consisting of residues 38-174, expressed in E. coli (ligand)
chain: ALHWEHELGLAFTKNRMNYTNKFLLIPESGDYFIYSQVTFRGMTSECSEIRQAGRPNKPDSITVVITKVTDSYPEPTQLLMGTKSVCEVGSNWFQPIYLGAMFSLQEGDKLMVNVSDISLVDYTKEDKTFFGAFLL
notes: also called VEGI-alpha deletion mutant; the mutant
